From patent US20150210761A1 (SAMSUNG ELECTRONICS, published 2015) come the findings set out here.

Test [1] has as its target T1, mouse Ang2 (Accession # NP-031452) (R&D Systems) (mouse, UniProt O35608 19-496).
T1 construct: Bought protein coated on the ELISA plate; also called mAng2
T1 sequence (looked up): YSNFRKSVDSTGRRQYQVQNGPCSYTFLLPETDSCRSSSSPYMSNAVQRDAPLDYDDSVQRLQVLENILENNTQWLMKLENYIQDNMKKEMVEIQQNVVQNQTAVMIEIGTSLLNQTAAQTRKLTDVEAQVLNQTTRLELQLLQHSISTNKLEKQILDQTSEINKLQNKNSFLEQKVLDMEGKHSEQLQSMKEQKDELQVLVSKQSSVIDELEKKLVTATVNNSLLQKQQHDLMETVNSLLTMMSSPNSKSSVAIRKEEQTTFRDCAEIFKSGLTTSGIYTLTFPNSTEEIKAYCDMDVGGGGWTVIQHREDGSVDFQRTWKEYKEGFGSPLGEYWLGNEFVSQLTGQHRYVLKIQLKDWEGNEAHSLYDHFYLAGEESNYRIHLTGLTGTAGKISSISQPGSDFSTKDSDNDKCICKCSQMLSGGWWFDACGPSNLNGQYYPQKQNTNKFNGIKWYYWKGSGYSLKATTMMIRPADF
As to the kind of experiment: ELISA on coated mouse Ang2.

For a further test, the target named is T2, Ang2 RBD mutant S417 (human, UniProt O15123 276-496).
T2 chain: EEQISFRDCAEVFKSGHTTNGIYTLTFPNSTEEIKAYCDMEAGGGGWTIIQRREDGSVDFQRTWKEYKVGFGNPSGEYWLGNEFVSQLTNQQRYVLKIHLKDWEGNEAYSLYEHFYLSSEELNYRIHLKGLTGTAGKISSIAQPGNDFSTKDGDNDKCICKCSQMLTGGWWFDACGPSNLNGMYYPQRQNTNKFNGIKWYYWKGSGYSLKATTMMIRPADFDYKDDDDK
As to the kind of experiment: ELISA; antibody coated, FLAG-tagged RBD mutant, anti-FLAG-HRP detection. (In general: ELISA stands for enzyme-linked immunosorbent assay.)

For the next test, the target named is T3, Ang2 RBD mutant P419 (human, UniProt O15123 276-496).
T3 chain: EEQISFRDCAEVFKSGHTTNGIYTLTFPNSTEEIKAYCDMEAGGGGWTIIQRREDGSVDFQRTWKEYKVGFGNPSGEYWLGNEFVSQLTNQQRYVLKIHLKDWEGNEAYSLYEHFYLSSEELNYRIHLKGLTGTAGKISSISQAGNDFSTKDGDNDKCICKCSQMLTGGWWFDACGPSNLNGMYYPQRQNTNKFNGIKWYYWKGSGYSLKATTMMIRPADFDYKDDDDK
Described as above.

The target in the next test is T4, Ang2 RBD mutant D448 (human, UniProt O15123 276-496).
T4 chain: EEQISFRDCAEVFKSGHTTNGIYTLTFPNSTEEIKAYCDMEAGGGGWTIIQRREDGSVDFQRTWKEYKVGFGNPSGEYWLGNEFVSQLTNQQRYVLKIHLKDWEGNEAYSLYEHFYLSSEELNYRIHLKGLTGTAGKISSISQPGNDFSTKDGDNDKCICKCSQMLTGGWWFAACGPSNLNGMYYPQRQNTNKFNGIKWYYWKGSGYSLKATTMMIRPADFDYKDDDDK
The description is as above.

Another test deals with T5, Ang2 RBD mutant N467 (human, UniProt O15123 276-496).
T5 chain: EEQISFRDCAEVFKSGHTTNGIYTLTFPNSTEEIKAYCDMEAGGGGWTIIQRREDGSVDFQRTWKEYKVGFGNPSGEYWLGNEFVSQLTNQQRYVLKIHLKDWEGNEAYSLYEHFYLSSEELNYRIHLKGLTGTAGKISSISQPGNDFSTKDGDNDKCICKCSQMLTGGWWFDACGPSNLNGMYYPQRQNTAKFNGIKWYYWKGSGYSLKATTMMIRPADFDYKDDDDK
The test is described as above.

The target in another test is T6, Ang2 RBD mutant K468 (human, UniProt O15123 276-496).
T6 chain: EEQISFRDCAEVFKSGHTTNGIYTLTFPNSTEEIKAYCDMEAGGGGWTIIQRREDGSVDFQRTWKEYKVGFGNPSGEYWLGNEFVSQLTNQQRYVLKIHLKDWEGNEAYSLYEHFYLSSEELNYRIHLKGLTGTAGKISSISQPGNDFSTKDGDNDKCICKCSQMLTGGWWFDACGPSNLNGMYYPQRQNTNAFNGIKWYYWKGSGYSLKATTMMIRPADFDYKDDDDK
The description is as above.

The next test has as its target T7, Ang2 RBD mutant F469 (human, UniProt O15123 276-496).
T7 chain: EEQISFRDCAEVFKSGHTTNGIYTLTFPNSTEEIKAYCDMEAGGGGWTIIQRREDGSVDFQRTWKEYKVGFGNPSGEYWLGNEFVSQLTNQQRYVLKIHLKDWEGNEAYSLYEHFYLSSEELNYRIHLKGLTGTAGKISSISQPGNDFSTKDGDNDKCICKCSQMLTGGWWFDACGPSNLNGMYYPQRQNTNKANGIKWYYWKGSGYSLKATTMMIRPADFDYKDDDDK
The test is described as above.

B1: SAIT-ANG2-AB-m1A10 (antibody, V domains shown)
VH: QVQLQQSGAELMKPGASVKISCKATDYTFSSYWLEWLIQRPGHGLEWIGEILPGSGSTNYNEKFRGKATFTEDTSSNTAYMQLSSLTSEDSAVYYCARGNHNSYYYAMDYWGQGTSVTVSS
VL: DIVLTQSPASLAVSLGQRATISCRASESVDSYGNSFMHWYQQKPGQPPKLLIYRASNLDSGIPARFSGSGSRTDFTLTINPVEADDVATYYCQQSNEDPLTFGAGTKLELK
notes: also called hybridoma KCLRF-BP-00306
Consider B1, for which the binding result in test [1] is recorded as “no binding”. Besides, the “Binding (%) (mutant Ang2 / native Ang2)” value is 100% with Ang2 RBD mutant S417; 102% with Ang2 RBD mutant P419; 95.3% with Ang2 RBD mutant D448; 79.4% in the test with Ang2 RBD mutant N467; 27.3% in the test with Ang2 RBD mutant K468; 77.9% with Ang2 RBD mutant F469.
